From patent publication US20260193352A1 (published 2026)

Molecular target: T1, cynomolgus monkey PD-1 Fc fusion (cynomolgus monkey, UniProt B0LAJ3 25-170)
T1 construct: also called Cyno PD-1
Experiment: SPR

T1 sequence (B0LAJ3 entry or part of it limits assumed, form in doubt): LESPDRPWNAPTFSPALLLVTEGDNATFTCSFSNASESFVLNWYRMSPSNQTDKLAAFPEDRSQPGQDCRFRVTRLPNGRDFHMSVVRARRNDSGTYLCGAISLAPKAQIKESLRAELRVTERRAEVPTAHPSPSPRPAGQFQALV

B1: PD-1-binding agent (comprising SEQ ID NOs: 1 and 2) (antibody, V domains shown)
VH: EVQLLESGGGLVQPGGSLRLSCAASGFTFSSYDMSWVRQAPGKGLEWVSTISGGGSYTYYQDSVKGRFTISRDNSKNTLYLQMNSLRAEDTAVYYCASPYYAMDYWGQGTTVTVSS
VL: DIQLTQSPSFLSAYVGDRVTITCKASQDVGTAVAWYQQKPGKAPKLLIYWASTLHTGVPSRFSGSGSGTEFTLTISSLQPEDFATYYCQHYSSYPWTFGQGTKLEIKR
In the case of B1, the “fold difference in KD (cynomolgus monkey PD-1 against human PD-1)” value is reported as less than 2 fold.
